Measurements reported in the supplement of paper PMC9732359.
± gives the uncertainty stated by the source.

Experiment: protein stability index of a GFP-peptide fusion (yeast GPS) (PSI 1-4); higher = more stable; sorted into four equal gates, so the index is relative within each strain
Summary of the method: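 Tiled 17-residue peptides from yeast proteins were fused downstream of GFP on a plasmid that also expresses Cherry, and the pooled library was carried in yeast. Mid-log cultures grown in leucine-free medium were sorted into four equal gates by GFP/Cherry fluorescence ratio. Plasmids from each gate were PCR-amplified and Illumina-sequenced, and reads were assigned to strains by barcodes. Each peptide's protein stability index is the sum, over gates, of the gate's read frequency multiplied by its gate number.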

Row | Sequence | protein stability index (pdr5∆) | protein stability index (san1∆) | protein stability index (ubr1∆) | protein stability index (doa10∆)
1 | DDFEEDEDEEDDDDYNA [RPC31] | 3.31 ± 0.12 | 3.2 ± 0.09 | 3.46 ± 0.29 | –
2 | EYRDLYTNSVELRSLSK [YMR129W/POM152] | 3.27 ± 0.072 | 3.24 ± 0.065 | 2.79 ± 0.29 | 3.18 ± 0.082
3 | DTFDGSDLRVLSGSISE [FAS1] | 2.34 ± 0.067 | 1.49 ± 0.14 | 1.79 ± 0.059 | 1.6 ± 0.079
4 | IDEPIKSIMDGIHDGHI [FAS1] | 1.87 ± 0.059 | 1.52 ± 0.094 | 1.57 ± 0.038 | 1.97 ± 0.044
5 | LEKKGFSEVYEYNRLKV [LIN1] | 3.18 ± 0.25 | 3.28 ± 0.1 | 3.22 ± 0.12 | 3.34 ± 0.16
6 | GKICLILTRLNGILPDD [SSN2] | – | – | 3.5 ± 0.15 | 3.12 ± 0.21
7 | LTYLYEMKNIRGPYLVI [SNF2] | 1.32 ± 0.04 | 1.27 ± 0.098 | 1.22 ± 0.042 | 1.22 ± 0.059
8 | QNVAGDKTAVKLDTEVK [SWP82] | – | – | 3.32 ± 0.089 | –
9 | PWCVKPEYLAMYGLTME [ITC1] | 3.03 ± 0.071 | 2.79 ± 0.081 | 2.07 ± 0.073 | 2.27 ± 0.065
10 | VSECIILGQTMSIGTGS [RPO31] | 2 ± 0.061 | 1.89 ± 0.086 | 2.58 ± 0.055 | 2.06 ± 0.078
11 | LVTQHKAKYNTPKYRLV [RPL5] | 1.94 ± 0.064 | 1.76 ± 0.095 | 1.87 ± 0.058 | 1.43 ± 0.052
12 | ELDQFWQEYSSVFKGGM [SRP14] | 2.66 ± 0.079 | 2.86 ± 0.098 | 3.13 ± 0.081 | 2.68 ± 0.073
13 | NKNQLLKRNRIRNARSI [POP1] | 3.1 ± 0.071 | 2.84 ± 0.059 | 3 ± 0.055 | 2.93 ± 0.071
14 | YSKDAKEIYYTPDPSEL [FAS2] | 2.81 ± 0.028 | 2.6 ± 0.026 | 2.619 ± 0.024 | 2.44 ± 0.026
15 | QTYGETTAVDALQKGLK [RPC19] | 1.1 ± 0.12 | 1.16 ± 0.29 | 1.14 ± 0.082 | 2.03 ± 0.13
16 | DILLCYQKLFSQFINDH [SRB8] | 2.64 ± 0.037 | 2.64 ± 0.042 | 1.84 ± 0.034 | 2.37 ± 0.034
17 | RKWVIFITKHLPLLILE [NUT1] | 1.25 ± 0.045 | 1.21 ± 0.1 | 1.2 ± 0.03 | 1.7 ± 0.067
18 | SNSSSSPPIIDLFSNNN [MED1] | 2.82 ± 0.05 | 2.83 ± 0.042 | 2.9 ± 0.042 | 2.77 ± 0.06
19 | SIGSIYQWNLDGLQQLD [RPN1] | 3.4 ± 0.068 | 1.93 ± 0.1 | 2.96 ± 0.067 | 3.26 ± 0.1
20 | NLRKSRGMLGLLEPPAK [RPO31] | 1.18 ± 0.21 | – | – | 1.61 ± 0.22
21 | QDVLQMLGRAGRPRYDT [BRR2] | 2.56 ± 0.23 | 3.43 ± 0.14 | 2.81 ± 0.28 | 3.41 ± 0.21
22 | LREEIFIANEGVHTGQF [RPL2A] | 2.84 ± 0.074 | 2.92 ± 0.06 | 3.03 ± 0.059 | 2.8 ± 0.084
23 | VKSVNDPSQNRLTGSLL [RPC37] | 3.48 ± 0.11 | 3.04 ± 0.11 | 3.08 ± 0.048 | 3.16 ± 0.089
24 | NGAFQNSSNLSYNNTGI [RRP4] | 2.85 ± 0.053 | 2.98 ± 0.045 | 2.84 ± 0.055 | 2.58 ± 0.069
25 | VNLSEVMTVPGIDPTRI [RPO21] | 3.07 ± 0.094 | 3.11 ± 0.05 | 3.05 ± 0.064 | 2.92 ± 0.083
26 | GISDDENDEEDIYMHDV [RRP4] | 3.31 ± 0.14 | 2.99 ± 0.12 | 3.46 ± 0.12 | 3.33 ± 0.13
27 | DPSQNRLTGSLLAHKVA [RPC37] | 2.15 ± 0.06 | 1.69 ± 0.095 | 2.31 ± 0.038 | 2 ± 0.05

Row | Sequence | protein stability index (pdr5∆) | protein stability index (san1∆) | protein stability index (ubr1∆) | protein stability index (doa10∆)
28 | VVGQNQLIDQFEWDISN [SNF5] | 2.62 ± 0.1 | 2.9 ± 0.062 | 3 ± 0.12 | 2.52 ± 0.093
29 | LIQQVPPGLDALVKPET [CDC53] | 2.98 ± 0.13 | 2.83 ± 0.13 | 3.24 ± 0.14 | 3.02 ± 0.12
30 | LLVKFIKFFWNNTHVGR [YLR018C/POM34] | 2.48 ± 0.085 | 2.51 ± 0.085 | 2.66 ± 0.095 | 2.97 ± 0.22
31 | KERYTVEDELTESIALS [RRI1] | 3.29 ± 0.052 | 3.11 ± 0.075 | 3.23 ± 0.058 | 3.1 ± 0.065
32 | KEENDEGLSAQIAFDLV [RPN2] | 3.56 ± 0.098 | 3.44 ± 0.076 | 3.33 ± 0.055 | 3.4 ± 0.14
33 | KIALREYINNCKKNTKK [POP4] | 2.86 ± 0.27 | 3.01 ± 0.087 | 2.89 ± 0.15 | –
34 | RRILPKPSRTSRQVQKR [RPS7A] | 3.44 ± 0.15 | 2.74 ± 0.1 | 3.35 ± 0.14 | –
35 | RDHEKDTYRTLMEEIES [YIL149C/MLP2] | 3.38 ± 0.043 | 3.414 ± 0.031 | 3.26 ± 0.037 | 3.31 ± 0.044
36 | VEHLLRDVRDQAAGGLS [RPN8] | 1.99 ± 0.17 | 2.81 ± 0.17 | 1.07 ± 0.12 | 2.7 ± 0.13
37 | VPFESLQGVTYPVLRKL [YIL149C/MLP2] | 2.56 ± 0.075 | 2.32 ± 0.12 | 2.27 ± 0.068 | 2.82 ± 0.11
38 | KYIVKASSGPRYIVGVR [RPT4] | 2.66 ± 0.13 | 3.4 ± 0.089 | 1.89 ± 0.075 | 1.87 ± 0.096
39 | ADLRPLQIKSIREIDVT [RPS7B] | 2.72 ± 0.26 | 2.53 ± 0.23 | 2.88 ± 0.1 | –
40 | NYPQDEINAVFNELCDP [POP1] | 3.04 ± 0.051 | 2.9 ± 0.057 | 3.07 ± 0.056 | 2.84 ± 0.059
41 | PSIVFIDEIDAIGTKRY [RPT2] | 2.28 ± 0.14 | 2.14 ± 0.17 | 2.92 ± 0.19 | –
42 | GVLKPDITFFGEALPNK [SIR2] | 3.19 ± 0.083 | 3.16 ± 0.091 | 3.35 ± 0.085 | 3.34 ± 0.08
43 | FSVRTKDSNKDVVVEGL [RPL10] | 2.32 ± 0.055 | 2.13 ± 0.073 | 2.77 ± 0.054 | 2.14 ± 0.051
44 | EVEVSTRDLFDLEKDRA [RPO31] | 3.37 ± 0.061 | 3.28 ± 0.042 | 3.23 ± 0.048 | 3.07 ± 0.052
45 | MKQYSYLMDSKNVRTRI [RRI1] | 2.6 ± 0.26 | – | 2.94 ± 0.22 | –
46 | DFYTRHHFTCEITGTSC [ITC1] | 1.64 ± 0.045 | 1.51 ± 0.094 | 1.65 ± 0.045 | 1.43 ± 0.042
47 | NILIASLMDTLITPAVR [YCG1] | 1.91 ± 0.073 | 1.58 ± 0.13 | 1.78 ± 0.055 | 1.41 ± 0.063
48 | YRRALQSSESFDDSDIT [YML103C/NUP188] | 2.36 ± 0.059 | 2.16 ± 0.058 | 2.46 ± 0.047 | 1.89 ± 0.056
49 | QAYQFLNTFGSKICLSH [ITC1] | 1.33 ± 0.049 | 1.63 ± 0.082 | 1.42 ± 0.054 | 2.06 ± 0.076
50 | AVSTIASISLAIGYPTL [RPP0] | 2.12 ± 0.056 | 1.53 ± 0.1 | 2.15 ± 0.049 | 1.92 ± 0.055
51 | GSMFSGDNTSDVDMEDR [RRI1] | 2.55 ± 0.074 | 2.51 ± 0.12 | 2.85 ± 0.16 | 2.01 ± 0.14
52 | EKLKQFSWISVVNDLVG [SIR3] | 1.99 ± 0.058 | 1.53 ± 0.08 | 1.55 ± 0.034 | 1.61 ± 0.052
53 | LNQIATLKIHLKKFLQE [IRR1] | 1.91 ± 0.22 | – | – | 2.17 ± 0.18
54 | KAGVEAISQSLRDESLT [PRE5] | 3.09 ± 0.082 | 3.37 ± 0.082 | 3.07 ± 0.067 | 3.05 ± 0.079
